Assay results taken from patent US20090081197A1, “Methods for Selection of Melanocortin Receptor-Specific Agents for Treatment of Obesity” (Palatin Technologies, Inc., priority 2007, published 2009).

Assays:
[1] = target: human melanocortin 5 receptor (human) (UniProt P33032); experiment: radioligand competition, [I125]-NDP-α-MSH, hMC5-R membranes
[2] = target: human melanocortin 3 receptor (human) (UniProt P41968); experiment: radioligand competition, [I125]-NDP-α-MSH, hMC3-R membranes
[3] = target: human melanocortin 4 receptor (human) (UniProt P32245); experiment: radioligand competition, [I125]-NDP-α-MSH, hMC4-R membranes, 1 µM compound
[4] = target: human melanocortin 5 receptor (human) (UniProt P33032); experiment: radioligand competition, [I125]-NDP-α-MSH, hMC5-R membranes, 1 µM compound
[5] = target: human melanocortin 3 receptor (human) (UniProt P41968); experiment: radioligand competition, [I125]-NDP-α-MSH, hMC3-R membranes, 1 µM compound
[6] = target: MC1-R of B-16 mouse melanoma cells (mouse) (UniProt Q01727); experiment: radioligand competition, [I125]-NDP-α-MSH, B-16 membranes
[7] = target: human melanocortin 4 receptor (human) (UniProt P32245); experiment: radioligand competition, [I125]-NDP-α-MSH, hMC4-R membranes
[8] = target: MC1-R of B-16 mouse melanoma cells (mouse) (UniProt Q01727); experiment: radioligand competition, [I125]-NDP-α-MSH, B-16 membranes, 1 µM compound
[9] = target: human melanocortin 4 receptor (human) (UniProt P32245); experiment: cell-based or functional assay

human melanocortin 3 receptor (human), sequence (P41968 whole entry): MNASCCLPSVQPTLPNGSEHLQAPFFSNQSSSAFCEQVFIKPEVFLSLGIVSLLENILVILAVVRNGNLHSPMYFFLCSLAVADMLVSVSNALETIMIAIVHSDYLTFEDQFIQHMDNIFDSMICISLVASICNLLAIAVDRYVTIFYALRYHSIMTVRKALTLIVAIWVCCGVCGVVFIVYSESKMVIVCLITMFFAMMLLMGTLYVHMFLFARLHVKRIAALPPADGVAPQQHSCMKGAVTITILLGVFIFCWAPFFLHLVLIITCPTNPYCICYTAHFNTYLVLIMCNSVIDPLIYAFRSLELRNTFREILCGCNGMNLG
MC1-R of B-16 mouse melanoma cells (mouse), sequence (Q01727 whole entry): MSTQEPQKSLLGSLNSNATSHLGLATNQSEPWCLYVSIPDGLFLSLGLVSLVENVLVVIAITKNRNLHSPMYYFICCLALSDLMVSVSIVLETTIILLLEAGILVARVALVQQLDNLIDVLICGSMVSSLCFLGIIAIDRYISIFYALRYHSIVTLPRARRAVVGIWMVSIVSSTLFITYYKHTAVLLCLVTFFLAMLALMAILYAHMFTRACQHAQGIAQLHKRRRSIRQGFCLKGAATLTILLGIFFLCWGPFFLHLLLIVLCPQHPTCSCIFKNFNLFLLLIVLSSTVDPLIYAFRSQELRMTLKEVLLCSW
human melanocortin 5 receptor (human), sequence (P33032 whole entry): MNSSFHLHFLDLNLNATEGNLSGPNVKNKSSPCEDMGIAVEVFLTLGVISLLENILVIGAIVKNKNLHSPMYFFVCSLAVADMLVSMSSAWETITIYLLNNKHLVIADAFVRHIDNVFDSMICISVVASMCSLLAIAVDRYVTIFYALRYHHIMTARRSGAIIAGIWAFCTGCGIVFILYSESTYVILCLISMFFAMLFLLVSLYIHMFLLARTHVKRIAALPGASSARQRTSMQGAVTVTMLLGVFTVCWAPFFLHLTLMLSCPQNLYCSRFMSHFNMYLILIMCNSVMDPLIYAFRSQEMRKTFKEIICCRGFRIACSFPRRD
human melanocortin 4 receptor (human), sequence (P32245 whole entry): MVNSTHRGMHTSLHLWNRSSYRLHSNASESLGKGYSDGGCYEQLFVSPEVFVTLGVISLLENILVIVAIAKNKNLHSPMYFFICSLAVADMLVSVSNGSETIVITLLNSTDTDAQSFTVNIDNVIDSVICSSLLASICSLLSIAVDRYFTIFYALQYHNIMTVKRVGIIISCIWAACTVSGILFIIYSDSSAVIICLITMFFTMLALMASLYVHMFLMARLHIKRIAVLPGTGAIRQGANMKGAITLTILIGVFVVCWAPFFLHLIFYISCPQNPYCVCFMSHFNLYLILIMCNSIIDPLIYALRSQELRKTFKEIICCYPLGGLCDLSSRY

Ki [1] [µM] | Ki [2] [µM] | Inhibition at 1 µM (NDP-α-MSH) [3] [%] | Inhibition at 1 µM (NDP-α-MSH) [4] [%] | Inhibition at 1 µM (NDP-α-MSH) [5] [%] | Ki [6] [µM] | Ki [7] [µM] | Inhibition at 1 µM (NDP-α-MSH) [8] [%] | EC50 (nM), normal system (cAMP) [9] [nM] | intrinsic activity, normal system (cAMP) [9] | EC50 (nM) (cAMP), High Receptor Density System [9] | Efficacy/Intrinsic Activity (cAMP), High Receptor Density System [9] | EC50 (nM) (cAMP), 0.1 ng/mL Doxycycline [9] | EC50 (nM) (cAMP), 10 ng/mL Doxycycline [9] | Efficacy/Intrinsic Activity (cAMP), 0.1 ng/mL Doxycycline [9] | Efficacy/Intrinsic Activity (cAMP), 10 ng/mL Doxycycline [9] | Substance
0.3 | 0.453 | 92 | 63 | 35 | 0.897 | 0.04 | 25 | > 1000 | 0.2 | – | – | – | – | – | – | 2-naphthylacetyl-1-amino-1-cyclohexane-carbonyl-D-Phe(4-Cl)-Arg-Trp-NH2 (peptide)
0.313 | 0.125 | 98 | 64 | 85 | 0.338 | 0.007 | 46 | 17 | 0.3 | 180 | 0.63 | – | – | – | – | 7'-amino-heptanoyl-Ser(Bzl)-D-Phe(4-Cl)-Arg-S-(-)-1-(1-naphthyl)ethylamide (peptide)
– | – | – | – | – | – | – | – | – | – | – | – | 3 | 0.9 | 0.9 | 1 | PT-141 (peptide)
